Drawing on PMC3268058 (2010), this text covers Kd for two molecules.

The target in this assay is SRC SH3 domain (GST-SH3(SRC)) 83-139 (Gallus gallus, UniProt P00523). The experiment in a line: fluorescence polarization competition. In general terms: Polarisation of emitted light reports the rotation of a fluorescent probe.

As a reminder, the Kd is the equilibrium constant for the complex coming apart. The low end stands for tighter binding, the high end for weaker binding.

As to VSLARRPLPPLPRL [AGT(PP2) fusion], binding was put at a Kd of 0.55 µM. As for RAARPLPPLPP [AGT(PP3) fusion], the Kd was 7 µM.
